Laboratory results as given in paper PMC12290059.

Target: recombinant SARS-CoV-2^RBD (biotinylated, AVI-tagged) (SARS-CoV-2) (UniProt P0DTC2)
Experiment: BLI

Substance: N. vison ACE2 used in biolayer interferometry (domain or fragment)
- Kd: 1.5 nM
